Source: paper doi:10.1101/2025.10.28.685229

Columns and labels:
[1] = target: YF17D virus particles (live-attenuated YFV 17D) (yellow fever virus, strain 17D); test: BLI
[2] = target: YF17D VLPs containing only E and M proteins (yellow fever virus, strain 17D); test: BLI

“Fc-tagged LRP8-LBD (LRP8 LA1237 with a C-terminal human IgG Fc) (Fc fusion)” showed a Kd [1] of 460 nM and a Kd [2] of 300 nM.
